Experimental data reported in patent US20170065702A1.
Residue numbers refer to the chain shown, from its start. Where two headings read alike, the source gives them in different places.

Columns and labels:
[1] = molecular target: Marburg Ravn GP pin peptide … (Marburg virus, Ravn strain); assay: pin peptide ELISA, pin D5, supernatant diluted 1/5, read at 1 hour
[2] = molecular target: Marburg Ravn GP pin peptide … (Marburg virus, Ravn strain); assay: pin peptide ELISA, pin D4, supernatant diluted 1/5, read at 1 hour
[3] = molecular target: Marburg Ravn GP pin peptide … (Marburg virus, Ravn strain)
[4] = molecular target: Marburg Ravn GP pin peptide … (Marburg virus, Ravn strain); assay: pin peptide ELISA, pin D6, supernatant diluted 1/5, read at 1 hour
[5] = molecular target: Marburg Ravn GP pin peptide … (Marburg virus, Ravn strain); assay: pin peptide ELISA, pin printed as D6 beside … (SEQ ID NO: 195), read at 1 hour

B1: CAN30G2 (antibody, V domains shown)
VH: DVQLVESGGGLVQPGGSRKLSCTASGFTFSSFGMHWVRQAPEKGLEWVAYISSGSSKIYYADTVKGRFTISRDNPKNTLFLQMTSLRSEDTAMYYCARGWYEGAWFAYWGQGTLVTVSA
VL: DVLMTQTPLSLPVSLGDQASISCRSSQSIVHSNGDTYLEWYLQKPGQSPKLLIYKVSNRFSGVPDRFSGSGSGTDFTLRISRVEAEDLGVYYCFQGSHFPWTFGGGTKLEIK
What does the source list for B1?
Absorbance (1 hour) [1]: 0.373 absorbance; Absorbance (1 hour) [2]: 0.848 absorbance

B2: CAN30G4 (antibody, V domains shown)
VH: EVKLVESGGGLVKSGGSLKLSCAVSGFTFSTYAMSWVRQIPEKRLEWVATISNGGSYIYYSDSVKGRFTISRDNAKNTLYLQMSSLRSEDTAMYYCARHRESYRYDWFAYWGQGTLVTVSA
VL: B1 VL with S28N, N33D, D35N, V56F, R79K, F99V, W101P, G105A, I111L
With B2 as the binder, how does the Absorbance (1 hour) [1] read?
Its Absorbance (1 hour) is 1.97 absorbance.

And the Absorbance (1 hour) [3]?
Its Absorbance (1 hour) is over 3.9 absorbance.

B3: CAN30G3 (antibody, V domains shown)
VH: QVQLKESGPGLVAPSQSLSITCTVSGFSLTDYGITWIRQPPGKGLEWLGVIWGGGSAYYNLVLKSRLSISKDNSKSQVFLKMNSLQTDDTAMYYCAKHRTLITTAMDYWGQGISVTVSS
VL: B1 VL with S28N, D35N, P45S, R79K
With B3 as the binder, how does the Absorbance (1 hour) [1] read?
Its Absorbance (1 hour) is 1.84 absorbance.

What about the Absorbance (1 hour) [4] of the same binder?
The Absorbance (1 hour) was 1.12 absorbance.

B4: CAN54G2 (antibody, V domains shown)
VH: QVQLQQSGTELVRPGTSVKISCKASGYDFTNFWLGWIKQRPGHGLEWIGDIYPGGDNTYYNEKFKGKVTLTADKSSNTAYMQFSSLTSEDSAVYFCFMILYTLDYWGQGTSVTVSS
VL: not shown
For B4, which Absorbance (1 hour) [5] is on record?
Its Absorbance (1 hour) is 1.85 absorbance.

B5: CAN30G5 (antibody, V domains shown)
VH: EVQLVESGGGLVQPKGSLKLSCAASGFAFNSYAMHWVCQAPGKGLEWVARIRIKSGNYATSYAGSVTDRFTVSRDDSQNLFYLQMNNLKTEDTAMYYCVREWEGAMDYWGQGTSVTVSS
VL: DIVLTQSPLSLPVSLGDQASISCRSSQSLVHSNGNTYLHWYLQKPGQSPNLLIYKVSNRFSGVPDRFSGSGSGTDFTLKISRVEAEDLGVYFCSQSTHVPWTFGGGTKLEIK
Which results are given for B5?
Absorbance (1 hour) [2]: 0.631 absorbance; Absorbance (1 hour) [3]: > 3.9 absorbance
